Experimental findings from patent CN112707964A are described below.

To fix the notation:
B1: WT 1-6 (antibody, from another filing, V domains shown)
VH: QVRLQESGPSQVKPAQTLSLTCAISGPSITTYYVDWVRHTPGKPPEWLAQMTKDANAVHQPTIRSRLSITRDTSKSQVFLKLTGVTTEDTAVYYCVKGLIDWGPGLLVTVSS
V domain: QAVLTQPSSVSRSLGQTVSITCSGSSDQVGPGDYLNWFQLIPGSAPKTLIFAASSRLRGVPDRFSGSRSGNTATLTINSLQAEDEADYYCGSANSRGGYVWGSGTRLTVLS
B2: WT 1-7 (antibody, from another filing, V domains shown)
VH: B1 VH with I29V, V34L, I63V, L99V
V domain: B1 V domain with Q28N, L35I, S54Y, A93G
B3: WT 1-9 (antibody, from another filing, V domains shown)
VH: B1 VH with I29V, V34I, I63L
V domain: B1 V domain with Q28N, L35V, S54Y, A93G
B4: WT 1-2 (antibody, from another filing, V domains shown)
VH: B1 VH with I29L, V34I, I63L, L99V
V domain: QAVLTQPSSVSRSLGQTVSITCSGSSDNVGPGDYLNWFQLIPGSAPKTLIFAASSRIRGVPDRFSGSRSGNTATLTINSLQAEDEADYYCGSPNSRNYVWGSGTRLTVLS
B5: WT 1-1 (antibody, from another filing, V domains shown)
VH: B1 VH with I29V, V34I, Q60N, L99V
V domain: B4 V domain with L35I, S54Y, P93A
B6: WT 1-8 (antibody, from another filing, V domains shown)
VH: B1 VH with I29L, I63V, L99I
V domain: B4 V domain with L35I, S54Y, I57V
B7: WT 1-5 (antibody, from another filing)
heavy: QVRLQESGPSQVKPAQTLSLTCAISGPSLTTYYLDWVRHTPGKPPEWLAQMTKDANAVHNPTVRSRLSITRDTSKSQVFLKLTGVTTEDTAVYYCVKGLIDFGPGLLVTVSSASTTPPKVYPLTSCCGDTSSSIVTLGCLVSSYMPEPVTVTWNSGALTSGVHTFPAILQSSGLYSLSSVVTVPASTSGAQTFICNVAHPASSTKVDKRVEPGCPDPCKHCRCPPPELPGGPSVFIFPPKPKDTLTISGTPEVTCVVVDVGQDDPEVQFSWFVDNVEVRTARTKPREEQFNSTFRVVSALPIQHQDWTGGKEFKCKVHNEGLPAPIVRTISRTKGQAREPQVYVLAPPQEELSKSTLSVTCLVTGFYPDYIAVEWQKNGQPESEDKYGTTTSQLDADGSYFLYSRLRVDKNSWQEGDTYACVVMHEALHNHYTQKSISKPPGK
light: QAVLTQPSSVSRSLGQTVSITCSGSSDQVGPGDYLNWFQLIPGSAPKTLIFAASSRIRGVPDRFSGSRSGNTATLTINSLQAEDEADYYCGSANSRNYVWGSGTRLTVLSQPKSAPSVTLFPPSKEELDTNKATVVCLISDFYPGSVNVVWKADGSTINQNVKTTQASKQSNSKYAASSYLTLTGSEWKSKSSYTCEVTHEGSTVTKTVKPSECS
B8: WT 1-4 (antibody, from another filing)
heavy: B7 heavy with L29V, L34V, N60Q, V63L, L99V
light: QAVLTQPSSVSRSLGQTVSITCSGSSDQVGPGDYVNWFQLIPGSAPKTLIFAATSRIRGVPDRFSGSRSGNTATLTINSLQAEDEADYYCGSGNSRGGYVWGSGTRLTVLSQPKSAPSVTLFPPSKEELDTNKATVVCLISDFYPGSVNVVWKADGSTINQNVKTTQASKQSNSKYAASSYLTLTGSEWKSKSSYTCEVTHEGSTVTKTVKPSECS

Positions count from the first letter of the chain named.

This assay has as its target 重组NT抗原(自产，130410) (human) (UniProt P16860). Description: BLI, antibody captured on AMC sensor, antigen in solution.
UniProt P16860, sequence (P16860 27-102): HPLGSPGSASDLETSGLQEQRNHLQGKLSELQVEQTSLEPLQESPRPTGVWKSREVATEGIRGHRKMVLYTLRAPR
Consider B1, for which the Kd is 5.25 nM. In other words, the single-digit nanomolar range.

B2 registered a dissociation constant (Kd) of 6.76 nM. Turning to B3, the dissociation constant Kd stood at 7.55 nM. The molecule B4 showed a dissociation constant (Kd) of 6.74 nM.

B5 showed a dissociation constant (Kd) of 6.25 nM. Then B6, with 8.36 nM; and B7, with 5.31 nM.

For B8, the Kd came out at 9.63 nM.

Broadly, the Kd is a measure of binding affinity in units of concentration. A high value points to lower affinity.
